{
  "source": "patent WO2021180110A1",
  "about": "(dated 2021)",
  "binders": {"B1": {"name": "anti-human BASIGIN humanized antibody (antibody, V domains shown)", "VH": "EVQLVESGGGLVQPGGSLRLSCAASGFTFSNFWMNWVRQAPGKGLEWVSEIRLKSNNYATHYAESVKGRFTISRDDSKNTLYLQMNSLKTEDTAVYYCTSYDYEYWGQGTLVTVSA", "VL": "DIQMTQSPSTLSASVGDRVTLSCKASENVGTYVSWYQQKPGKAPKLLIYGASNRYTGVPSRFTGSGSGTDFTLTISSLQPEDFATYYCGQSYSYPFTFGSGTKLEIK"}, "B2": {"name": "CD147 (receptor, human, UniProt P35613-2 22-205, looked up)", "chain": "AAGTVFTTVEDLGSKILLTCSLNDSATEVTGHRWLKGGVVLKEDALPGQKTEFKVDSDDQWGEYSCVFLPEPMGTANIQLHGPPRVKAVKSSEHINEGETAMLVCKSESVPPVTDWAWYKITDSEDKALMNGSESRFFVSSSQGRSELHIENLNMEADPGQYRCNGTSSKGSDQAIITLRVRSH", "notes": "also called BASIGIN; EMMPRIN"}},
  "key": {"[1]": {"biological_target": "CD147 on Vero E6 host cells", "assay": "cell-based or functional assay"}, "CD147-Tag fusion protein": {"biological_target": "T1, CD147-Tag fusion protein (human, UniProt P35613-2 22-205)", "T1 sequence (looked up)": "B2 chain"}, "CD147-his fusion protein": {"biological_target": "T2, CD147-his fusion protein (human, UniProt P35613 22-205)", "T2 sequence": "B2 chain"}, "cyclophilin A (CyPA) [2]": {"biological_target": "T3, cyclophilin A (CyPA) (UniProt P62937 1-165)", "T3 construct": "also called 亲环素A", "T3 sequence (P62937 whole entry)": "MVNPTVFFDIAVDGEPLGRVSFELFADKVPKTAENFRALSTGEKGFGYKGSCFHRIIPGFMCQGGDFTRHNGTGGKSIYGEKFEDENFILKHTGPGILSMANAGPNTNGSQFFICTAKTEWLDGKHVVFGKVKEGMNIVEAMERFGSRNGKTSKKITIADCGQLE", "assay": "ELISA; format not described"}, "cyclophilin A (CyPA) [3]": {"biological_target": "T3, cyclophilin A (CyPA)"}},
  "data": [
    {"binder": "B1", "values": [
      {"measurement": "EC50 of inhibition of cytopathic effect of COVID-19 virus on Vero E6 cells", "setting": "[1]", "value": 36, "unit": "µg/mL"},
      {"measurement": "IC50", "setting": "CD147-Tag fusion protein", "value": 1.28, "unit": "µg/mL"},
      {"measurement": "IC50", "setting": "CD147-his fusion protein", "value": 16.4, "unit": "µg/mL"}
    ]},
    {"binder": "B2", "values": [
      {"measurement": "EC50", "setting": "cyclophilin A (CyPA) [2]", "value": 135, "unit": "µg/mL"},
      {"measurement": "Kd", "setting": "cyclophilin A (CyPA) [3]", "value": "~8.7", "unit": "µM"},
      {"measurement": "koff", "setting": "cyclophilin A (CyPA) [3]", "value": 0.0008, "unit": "s⁻¹"}
    ]}
  ]
}
